Measured values as given in PMC3316158.

Tests used:
[1] = molecular target: AtCaM6 (Arabidopsis thaliana calmodulin 6), recombinant (Arabidopsis thaliana) (UniProt Q03509); experiment: native gel or EMSA
[2] = molecular target: BRI1 W980 peptide (Arabidopsis); experiment: pull-down

| Substance | stoichiometry N (mol equivalent of peptide per AtCaM6) [1] | retained CaM7 with Ca^2+ relative to without Ca^2+ (densitometry) [2] [fold] |
| --- | --- | --- |
| Peptide representing the CaM-binding domain of mammalian CaMKII (Ca^2+/CaM-dependent protein kinase II) | 1 | – |
| His6–AtCaM7 (Arabidopsis thaliana calmodulin 7) (from UniProt P59220 1-149) (natural protein) | – | 2.7 |
